Measured values reported in IntAct's records for PubMed 24792722.

B1: Rho guanine nucleotide exchange factor 7 (Homo sapiens), Q14155 (parent)
chain: MNSAEQTVTWLITLGVLESPKKTISDPEGFLQASLKDGVVLCRLLERLLPGTIEKVYPEPRSESECLSNIREFLRGCGASLRLELLFPPSQPPQHLVTTILLSASTFDANDLYQGQNFNKVLSSLVTLNKVTADIGLGSDSVCARPSSHRIKSFDSLGSQSLHTRTSKLFQGQYRSLDMTDNSNNQLVVRAKFNFQQTNEDELSFSKGDVIHVTRVEEGGWWEGTLNGRTGWFPSNYVREVKASEKPVSPKSGTLKSPPKGFDTTAINKSYYNVVLQNILETENEYSKELQTVLSTYLRPLQTSEKLSSANISYLMGNLEEICSFQQMLVQSLEECTKLPEAQQRVGGCFLNLMPQMKTLYLTYCANHPSAVNVLTEHSEELGEFMETKGASSPGILVLTTGLSKPFMRLDKYPTLLKELERHMEDYHTDRQDIQKSMAAFKNLSAQCQEVRKRKELELQILTEAIRNWEGDDIKTLGNVTYMSQVLIQCAGSEEKNERYLLLFPNVLLMLSASPRMSGFIYQGKLPTTGMTITKLEDSENHRNAFEISGSMIERILVSCNNQQDLQEWVEHLQKQTKVTSVGNPTIKPHSVPSHTLPSHPVTPSSKHADSKPAPLTPAYHTLPHPSHHGTPHTTINWGPLEPPKTPKPWSLSCLRPAPPLRPSAALCYKEDLSKSPKTMKKLLPKRKPERKPSDEEFASRKSTAALEEDAQILKVIEAYCTSAKTRQTLNSTWQGTDLMHNHVLADDDQPSLDSLGRRSSLSRLEPSDLSEDSDYDSIWTAHSYRMGSTSRKSCCSYISHQN

Variants of: B1
Conditions: with rac1_human RAC1, P63000

Variant | effect of a mutation on the interaction
P340E | increasing interaction
